Data on one substance can be found in patent US20070265201A1, “INHIBITORS OF IN[…] TRA[…] FROM HCMV PROTEIN IE2” (priority 2005, published 2007).

The assay concerns the target Spi-1 transcription factor, expressed in cells. The assay can be described thus: cell-based or functional assay.

Take “IE2 291-364 expressed in cells from pCDNA 3.1/V5-His IE2 291-364 (peptide)”: the inhibition of IL-1β promoter luciferase reporter in LPS-treated RAW 264.7 cells worked out at 50% and the maximum inhibition of the 3.8 kbp complete IL1B regulatory region luciferase reporter in LPS-treated RAW264.7 cells was in the range of 50 to 75%.
